In article PMC2914791, “Trichomonas Transmembrane Cyclases Result from Massive Gene Duplication and Concomitant Development of Pseudogenes” (PLoS Neglected Tropical Diseases, 2010):

B1: group A cyclase (TVAG_456550), Trichomonas TMAC cyclase domain (Trichomonas vaginalis G3) (protein)
chain: TILFLDVVEFTPWCGSHDAQYVMRMLNIMFKEFDVITNAHKTMTKIKCIGDCYMAAGGIFDEVNQPPVHAKEVVDFGCKVIKKLLEIDEQENEKLRIRVGINTGGPIVAGVIGTEKPTFEILGPAINIAHEME
B2: group B cyclase (TVAG_013980), Trichomonas TMAC cyclase domain (Trichomonas vaginalis G3) (protein)
chain: TIFFVDIVKFSNYAAALSPSEIMSNLSLVFSTFDKIVVKYPTILKIKLIGDVYMAAAGIFSDPQMNPSKPAEESVNCCLDIQKVMEQINVKLSAGLEVRIGVNTGGPLIGGVLGTDKPTFDIIGDPINVASRLQ

Substrate: Nc1ncnc2c1ncn2[C@@H]1O[C@H](COP(=O)(O)OP(=O)(O)OP(=O)(O)O)[C@@H](O)[C@H]1O
Assay: cAMP direct immunoassay, colorimetric
Format: biochemical, Trichomonas vaginalis
Details: 4 µg GST-fusion protein; 0.2 mM GTP present in cAMP assay

Protein	Km [µM]
B1	520 ± 10
B2	710 ± 10
